Test results as given in the nanobody polyreactivity screen of Harvey et al. (2022).

Assay: yeast display, Sf9 membrane polyspecificity reagent, FACS + sequencing; frameworks hold sequencing errors
In short: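 Galactose-induced (36–48 hours) yeast carrying a synthetic nanobody display library were exposed to 10% biotinylated, detergent-solubilized Sf9 membrane reagent at 4 °C for 1 hour. FACS followed streptavidin microbead enrichment, using low and high (top ~1%) gates for expression (anti-HA) and reagent binding (streptavidin). Colony PCR, MiSeq 2 × 250 sequencing and CDR-length filtering followed. Labels for polyreactivity reflect the gate of origin.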

Sequence: QVQLVESGGGLVQAGGSLRLSCAASGITFNSYVMGWYRQAPGKERELVAAIRWSGGRTYYADSVKGRFTISRDNAKNTVYLQMNSLKPEDTAVYYCNRVTRSHVDYWGQGTQVTVSS
- polyreactivity (PSR sort gate): high polyreactivity

Sequence: QVQLVESGGGLDQAGGSLRLSCAASGFTFVGNAMGWYRQAPGKERELVATITSGGNTKYADSVKGRFTISRDNAKNTVYLQMNSLKPEDTAVYYCAAAKYNYRRFNYWGQGTQVTVSS
- polyreactivity (PSR sort gate): low polyreactivity

Sequence: QVQLVESGGGLVQAGGSLRLSCAASVSIFYVYARGCYRQAPGKERELVAAITSSGTTNYADSVKGRFTISRDNAKNTVYLQMNSLKPEDTAVYYCAADPDSGQVPFDYWGQGTHVTVSS
- polyreactivity (PSR sort gate): low polyreactivity

Sequence: QVQLVESGGGLVQAGGSLRLICAASGRIFGRYTMGWYRQAPGKETELVAGITYSGGSTYYADSVKGRFTISRDNAKNTVYLQMNSLKPEDTAVYYCAARWRGSGGFDYWGQGTQVTVSS
- polyreactivity (PSR sort gate): high polyreactivity

Sequence: QVQLVESGGGLVQAGGSLRLSCASSGLIFPFYDMGWYRQAPGKERELVAAMTRSGDSTYYADSVKGRFTISRDNAKNTVYLQMNSLKPEDTAVSYCAAQPGTASYAGDGDSWGQGTQVTVSS
- polyreactivity (PSR sort gate): low polyreactivity

Sequence: QVQLVESGGGLVQAGGSLRLSCAASGFTFTYNAMGWYRQAPGKERELVAGISWRGGTTYYADSVKGRFTISRDNAKNTVYLQMNSLKPEDTAVYYCAARNYYRGSGWPSNRGYYWGQGTQVTVSS
- polyreactivity (PSR sort gate): high polyreactivity

Sequence: QVQLVESGGGLVHAGGSLRLSCAASGIIFGSYAMGWYRQAPGKERELVAAITRSGGRTYYADSVKGRFTISRDNAKNTVYLQMNSLKPEDTAVYYCAADRGYRGATGKYDSWGQGTEVTVSS
- polyreactivity (PSR sort gate): high polyreactivity

Sequence: QVQHVESGVGLVQAGGSLRLSCAASGSIFVHNAMGWYRQAPGKERELVAGISARAASTYYADSVKGRFTISRDNAKNTVYLQMNSLKPEDTAVYYCAADRIPGYRVYGFYYWGQGTQVTVSS
- polyreactivity (PSR sort gate): low polyreactivity

Sequence: QVQLVESGGGLLQAGGSLRLSCAASGITFQGYAMGWYRQAPGKERELVAAITYRGGSTYYADSVKGRFTISRDNAKNTVYLQMNSLKPEDTAVYYCARDHSRHLHPSWLDYWGQGTQVTVSS
- polyreactivity (PSR sort gate): high polyreactivity

Sequence: QVQLVESGGGLDHAGGRLRLSCAASGSIFIYYAMGWYRQAPGKERELVAAISNGGSTNYADSVKGRFTFSRDNAKNTVYLQMNSLKPEDTAVYYCNTDWGYFHGVRAYLGYGYWGQGTQVTVSS
- polyreactivity (PSR sort gate): low polyreactivity

Sequence: QVQLVESGGGLVQAGGSLRLSCAASGRTFVKNAMGWYRQAPGKERELVATISSSGASTRYADSVKGRFTISRDNAKNTVYLQMNSLKPDDSAVYYCAAGYGFPRDYWGQGTQVTVSS
- polyreactivity (PSR sort gate): high polyreactivity

Sequence: QVQLVESGGGLVQAGGSLRLSCAASGFISTYYAMGWYRQAPGKERELVAAISWNGGSTYYADSVKGRFTISRDNAKNTVYLQMNSLKPEDTAVYYCAAYLGKWRHFYSSDYDYWGQGTQVTVSS
- polyreactivity (PSR sort gate): low polyreactivity

Sequence: QVHLLESGGGLVQAGGSLRLICAASGRILYPYALVWYRQAPGKETELVAAITFRGGNTYYADSVKARFTLSRDYAKNTVYLQMNSMKPEDTAVYFCAARKSPRSQVRGRSYYWGQGSQVTVSS
- polyreactivity (PSR sort gate): high polyreactivity

Sequence: QVQLVESGGGLVQAGGSLSLSCAASGSIFLRNAMGWYRPAPGKERELVAAITRVGSTYADSVKGRFTISRDNAKNTVYLQMNSLKPEDTAVYYCAAVSGVRSGPWRYDYWGQGTQVTVSS
- polyreactivity (PSR sort gate): high polyreactivity

Sequence: QVQLVESGGGLVQAGGSLRLSCAASGRIFARYAMGWYRQAPGKERELVAAITTSGDSTYYADSVKGRFTISRDNAKNTVYLQMNSLKPEDTAVYYCAAERRYGRYYRLVRLLGQGTQVTVSS
- polyreactivity (PSR sort gate): high polyreactivity

Sequence: QVQLVESGGGLVQAGGSLRLSCDASGSIFIPYAMGWYRQAPGKERELVAAISGSGTSTNYADSVKGRFTISRDNAKNTVYLQMNSLKPEDTAVYYCAARLPYGYLRSKFYYWGQGTQVTVSS
- polyreactivity (PSR sort gate): high polyreactivity

Sequence: QVQLVESGGGLVQAGGSLRLSCAASGRIFQIYAMGWYRQAHGKERELVAAISSGGTTYYADSVKGRFTISRDNAKYTVYLLMNSLKPEDTAVYYCADASGYYRYDYWGQGTQVTVSS
- polyreactivity (PSR sort gate): high polyreactivity

Sequence: QVQLVESGGGLVQAGGSLRLSCAASGYIFRRYAMGWYRQAPGKERELVAAISFSGGSTYYADSVKGRFTISRDNAKNTVYLQMNSLKPEDTAVYYCAALSLLRYDYWGQGTQVTVSS
- polyreactivity (PSR sort gate): high polyreactivity

Sequence: QVQLVESGGGLVQAGGSLRLSCAASGRIFGQNVIGWYRQAPGIERELVAAITSAGRTYYADSVKGRFTISRDNAKNPVYLQMNSLKPEDTAVYYCAAQYPINYFTGYGYWGQGTQVTVSS
- polyreactivity (PSR sort gate): high polyreactivity

Sequence: QVQLVESGVGLVQAGGSLRLSCAASGITFREYAMGWYRQAPGKERELVAAIRYSGGSTYYADSVKGRFTISRDNAMNTVYLQMNSLKPEDTAVYYCAADPRRTLSPQLSDYWGLGTQVTVSS
- polyreactivity (PSR sort gate): high polyreactivity

Sequence: QVQLVESGGGLVQAGGSLRLSCAASGRLCGIYTMGWYRQAPGKERELVAAISKRGSSTSYADSVKGRFTISRDNAKNTVYLQMNSQKPEDTAVYYCAARYGYSYRYSGFDYWGQGTQVTVSS
- polyreactivity (PSR sort gate): high polyreactivity

Sequence: QVQLVESGGGLVQAGGSLRLSCAASGSIFKWYAMGWYRQAPGKERELVASITWSGGSTYYADSVKGRFTISRDNAKNTVYLQMNSLKPEDTAVYYCNALSWVRGDYWGQGTQVTVSS
- polyreactivity (PSR sort gate): low polyreactivity

Sequence: QVQLVESGGGLVHAGGSLRLSCAASGSIFVWNAMGWYRQAPGKERELVARIRYSSNTYYADSVKGRFTISRDNAKNNVYLQMTSLKPEDTAVYYCAAGSTRYAGWTYNYWGQGTHVTVSS
- polyreactivity (PSR sort gate): high polyreactivity

Sequence: QLQLVESGGGIVQAGGRLRLSCAASGLIFYLYAMGWYRQAPGKERELVATITTGGRTNYADSVKGRFTISRDNAKISVYLQMNSLTPVDTAVYYCAATHRGQGGYYWGQGSQVTVSS
- polyreactivity (PSR sort gate): low polyreactivity

Sequence: QVQLVESGGGLVHAGGSLRLSCAASGSIFTGYAMGWYRQAPGKERELVAAIDYRSGSTYYADSVKGRFTISRDNAKNTVYLQMNSLKPEDTAVYYCAAPAGWGFDEAFGYGYWGQGTQVTVSS
- polyreactivity (PSR sort gate): low polyreactivity

Sequence: QVQLVESGGGLVQAGGSLRLSCAASGSICWIYAMGWYRQAPGKERELVAAINVGGGSTYYADSVKGRFTISRDNAKNTVYLQMNSLKPEDTAVYYCAKGYQSPYKSQGYEYDYWGQGTQVTVSS
- polyreactivity (PSR sort gate): low polyreactivity

Sequence: QVQLVESGGGLVQAGGSLRLSCAASGRTFRYNTMGWYRQAPGKERELVASISWGGGSTYYADSVKGRFTISRDNAKNTVYLQMNSLKPEDTAVYYCAARRWGQFRFEYWGQGTQVTVSS
- polyreactivity (PSR sort gate): high polyreactivity

Sequence: QVQLVESGGGLVQAGGSLRLTCAASGSIFYRNAMGWYRQAPGKERELVAAISTDGSTNYADSVKGRFTISRDNAKNTVYLHMNSLIPEDTAVSYCAAPWTQILDYWGQGTQVTVSS
- polyreactivity (PSR sort gate): low polyreactivity

Sequence: QDQLVESGGGLVQAGGSLRLTCAASGSTFNYYAMGWYRQAPGKERELVAAISRSGGRTYYADSVKGRFTISRDNAKTTVYLQMNSLKEEDTAVYYCAAQVLTTGGEGGYWGQGTQVTVSS
- polyreactivity (PSR sort gate): high polyreactivity

Sequence: QVQLVESGGGLVQAGGSLRLSCASSGSIFALNAMGWYRQAPGKERELVAAISSSGGNTYYADSVKGRFTISRDNAKNTVYLQMNSLKPEDTAVYYCNRVAYRNDFDYWGQGTQVTVSS
- polyreactivity (PSR sort gate): low polyreactivity

Sequence: EEELVESGGGLVQAGGSLRLSCAASARISTVMLWDWYRQAPGKDRELVAAITKSGGSTYYADSVKGRFTISRDNAKNTVYLQMNSLIPEDTAVYYCAADRYAILFYAEDYWGQGTQETVSS
- polyreactivity (PSR sort gate): low polyreactivity

Sequence: QVQLVESGGGLVQAGGSLRLSWAASGSSFFRNAMGGYSQAPGKERELVASISRSGGSTYYADSVKGRFTISRDNAKNTVYLQMNSLKPEDTAVSYCAKKPNTQTSYWYYYWGQGTQVTVST
- polyreactivity (PSR sort gate): high polyreactivity

Sequence: QVQLVESGGGLVQAGGSLRLSCAASGRTFVDNGMGWYRQAPGKERELVAAITYSGGGTYYADSVKGRFTISRDNAKNTVYLQMNSLKPEDTAVYYCNAELGPVDYYGGVTPEYDYWGQGTQVTVSS
- polyreactivity (PSR sort gate): low polyreactivity

Sequence: QVQLVESGGGLVQAGGSLRLSCAASGYTVGNNAMGWYRQAPGKERELVARIRTNGGTTYYADSVKGRFTISRDNAKNTVYLQMNSLKPEDTAVYYCNAYRGYEYDYWGQGTQVTVSS
- polyreactivity (PSR sort gate): low polyreactivity

Sequence: QVQLVESGGGLVQAGGSLRLSCAASGRIFLRNVMGWYRQAPGKERELVAAISARGGSTYYADSVKGRFTISRDNGKNSVYLQMNSLKPEDTAVYYCAAGYPVSPSKYYYWGQGTQVTVSS
- polyreactivity (PSR sort gate): high polyreactivity

Sequence: QVQLVESGGGLVQAGGSLRLSCAASGFIFRPYAMGWYRQAPGKERELVATIRWGASSTHYADSVKGRFTISRDNAKNTVYLQMNSLKPEDTAVYDCNADGWYGAVYWWFYGFDYWGQGTQVTVSS
- polyreactivity (PSR sort gate): low polyreactivity

Sequence: QVQLVESGGGLVQAGGSLRLSCAASGYTFLPYALGWYRQAPGKERELVAAINWGGGSTYYADSVKGRFTISRDNAKNTVYLQMNSLKPEDTAVYYCNAKRPFGGLDYWGQGSQVTVSS
- polyreactivity (PSR sort gate): low polyreactivity

Sequence: QVQLVESGGGLVQAGGSLRLSCAASVSTFAPNAMGWYRQAPGKEMELVASIRRGGSTHYADSVKGRFTISRDNAKNTVYLQMNSLQPEDTAVYYCAAEFRDVSSNGYDYWGQGTQVTVSS
- polyreactivity (PSR sort gate): low polyreactivity

Sequence: QVQLVESGGGLVQAGGSLRLSCAASGSTFGPYAMGWYRQAPGKERELVAAITKSGGRTYYADSVKGRFTISRDNAKNTVYLQMNSLKPEDTAVYYCAAYGSVGLEYWGQGTQVTVSS
- polyreactivity (PSR sort gate): high polyreactivity

Sequence: QVQLVESGGGLVQAGGSLRLSCAASGITFYWYTMGLYRQAPGKERELVAAISSRGSSTRYADSVKGRFTISRDNAKNTVYLQMNSLKPEDTAVYYCAADDLSDGYYDEAYEDNYWGQGTQVTVSS
- polyreactivity (PSR sort gate): low polyreactivity

Sequence: QVQLVESGGRLVQAGGRLRLSCDASGYIISSYVMGWYRQAHGKDKELVAAINRRGGSTYYADSVKGRFTISRDNAKNTVYLQMNSLKPEDTAVYYCAADGLSGYGSGGYYGMGYWGQGTQVTVSS
- polyreactivity (PSR sort gate): high polyreactivity

Sequence: QVQLVESGGGLVQAGGILRFSCAASGRISVVNAMAWFRQAPGKARELVAAIRRASTNYADSVKGRFTISRDNAKNTVYLQMNSLKPEDTAVYYCAARVYGINIFEYWGQGTQVTLSS
- polyreactivity (PSR sort gate): high polyreactivity

Sequence: QVQLVESGGGLVQAGGSLRISCAASGSTFDANAMGRYRQAPGKEREMVAANSYSGGTTYYADSVKGRFTISRDNAKNTVYLQMNSLKQEDTAVYYCATRKAFTAGSYNVYYGEYYWGQGTQVTVSS
- polyreactivity (PSR sort gate): low polyreactivity
